Measured values: paper PMC6776900, “PPM1G forms a PPP‐type phosphatase holoenzyme with B56δ that maintains adherens junction integrity” (EMBO Reports, 2019)

Columns and labels:
Test in all cases: BLI; Octet Red 96; His-tagged PPM1G or PPP2R1A immobilised on Ni-NTA biosensors, GST-B56δ proteins in solution (100–400 nm); 50 mM Tris pH 7.5, 300 mM NaCl, 0.01% NP-40 Igepal, 1 mM DTT; 25 °C
Settings in all cases: both partners purified
GST-B56δ L183A = biological target: T1, GST-B56δ L183A (human, UniProt Q14738 1-602, L183A)
T1 construct: B56δ (PPP2R5D), human cDNA, full length, point mutant; source: E. coli BL21 (DE3), purified (glutathione Sepharose)

GST-B56δ H282A = biological target: T2, GST-B56δ H282A (human, UniProt Q14738 1-602, H282A)
T2 construct: B56δ (PPP2R5D), human cDNA, full length, point mutant; source: E. coli BL21 (DE3), purified (glutathione Sepharose)

GST-B56δ = biological target: T3, GST-B56δ (human, UniProt Q14738 1-602)
T3 construct: PP2A regulatory subunit B56δ (PPP2R5D), human cDNA, full-length protein; also called GST-B56δ wild type (WT); GST-tagged B56δ; source: E. coli BL21 (DE3), purified (glutathione Sepharose)
T3 sequence (Q14738 whole entry, stated change not applied): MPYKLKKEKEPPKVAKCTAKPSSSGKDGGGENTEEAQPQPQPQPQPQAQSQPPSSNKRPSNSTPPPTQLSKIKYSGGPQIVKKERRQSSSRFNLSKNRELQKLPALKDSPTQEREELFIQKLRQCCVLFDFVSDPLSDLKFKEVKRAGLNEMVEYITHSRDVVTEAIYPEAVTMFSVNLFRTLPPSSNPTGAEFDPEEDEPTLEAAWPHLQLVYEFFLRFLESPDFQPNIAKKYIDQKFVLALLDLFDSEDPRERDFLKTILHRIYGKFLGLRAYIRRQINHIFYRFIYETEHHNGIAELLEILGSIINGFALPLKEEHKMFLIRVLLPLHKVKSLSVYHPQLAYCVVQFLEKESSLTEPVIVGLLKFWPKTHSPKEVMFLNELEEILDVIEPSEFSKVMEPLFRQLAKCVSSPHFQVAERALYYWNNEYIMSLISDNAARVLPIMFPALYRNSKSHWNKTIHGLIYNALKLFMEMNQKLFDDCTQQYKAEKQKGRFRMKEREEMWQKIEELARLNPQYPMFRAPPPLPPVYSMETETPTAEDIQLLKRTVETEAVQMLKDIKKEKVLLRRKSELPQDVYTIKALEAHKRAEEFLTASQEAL

T1 sequence (Q14738 whole entry L183A): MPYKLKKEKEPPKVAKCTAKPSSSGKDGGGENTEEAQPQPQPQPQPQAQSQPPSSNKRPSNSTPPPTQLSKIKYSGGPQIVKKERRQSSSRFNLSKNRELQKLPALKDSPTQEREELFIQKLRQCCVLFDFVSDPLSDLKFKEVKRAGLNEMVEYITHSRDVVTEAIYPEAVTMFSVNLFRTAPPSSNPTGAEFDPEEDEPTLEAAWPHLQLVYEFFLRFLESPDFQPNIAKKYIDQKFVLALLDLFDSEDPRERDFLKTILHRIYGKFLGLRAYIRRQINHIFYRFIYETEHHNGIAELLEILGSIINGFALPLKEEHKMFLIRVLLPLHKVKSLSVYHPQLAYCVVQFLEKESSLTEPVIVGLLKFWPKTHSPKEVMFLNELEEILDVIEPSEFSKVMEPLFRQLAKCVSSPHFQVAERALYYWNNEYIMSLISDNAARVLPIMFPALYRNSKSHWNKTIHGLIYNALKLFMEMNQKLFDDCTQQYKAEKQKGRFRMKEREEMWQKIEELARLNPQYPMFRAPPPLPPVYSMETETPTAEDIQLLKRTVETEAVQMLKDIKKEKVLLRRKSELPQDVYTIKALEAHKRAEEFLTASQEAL
T2 sequence (Q14738 whole entry H282A): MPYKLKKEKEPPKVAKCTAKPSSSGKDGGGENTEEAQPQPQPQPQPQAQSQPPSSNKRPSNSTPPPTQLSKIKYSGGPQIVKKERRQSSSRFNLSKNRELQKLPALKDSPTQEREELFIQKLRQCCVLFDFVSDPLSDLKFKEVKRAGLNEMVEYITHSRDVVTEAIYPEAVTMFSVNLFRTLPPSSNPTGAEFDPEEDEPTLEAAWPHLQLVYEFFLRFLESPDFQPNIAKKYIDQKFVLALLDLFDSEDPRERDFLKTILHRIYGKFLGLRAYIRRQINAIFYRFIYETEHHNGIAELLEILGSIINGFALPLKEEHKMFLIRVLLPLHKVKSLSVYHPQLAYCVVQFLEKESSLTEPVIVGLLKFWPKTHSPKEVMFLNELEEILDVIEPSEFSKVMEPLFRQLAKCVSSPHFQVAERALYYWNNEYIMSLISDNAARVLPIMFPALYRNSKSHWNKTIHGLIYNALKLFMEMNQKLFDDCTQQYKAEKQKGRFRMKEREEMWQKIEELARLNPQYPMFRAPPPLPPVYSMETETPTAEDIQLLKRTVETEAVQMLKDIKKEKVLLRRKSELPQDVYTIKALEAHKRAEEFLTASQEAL

Kd (GST-B56δ L183A): 5.59 nM | Kd (GST-B56δ H282A): 4.38 nM | Kd (GST-B56δ): 5.04 nM
B1: 6xHis-tagged PPM1G (enzyme, human, UniProt O15355 1-546, looked up)
chain: MGAYLSQPNTVKCSGDGVGAPRLPLPYGFSAMQGWRVSMEDAHNCIPELDSETAMFSVYDGHGGEEVALYCAKYLPDIIKDQKAYKEGKLQKALEDAFLAIDAKLTTEEVIKELAQIAGRPTEDEDEKEKVADEDDVDNEEAALLHEEATMTIEELLTRYGQNCHKGPPHSKSGGGTGEEPGSQGLNGEAGPEDSTRETPSQENGPTAKAYTGFSSNSERGTEAGQVGEPGIPTGEAGPSCSSASDKLPRVAKSKFFEDSEDESDEAEEEEEDSEECSEEEDGYSSEEAENEEDEDDTEEAEEDDEEEEEEMMVPGMEGKEEPGSDSGTTAVVALIRGKQLIVANAGDSRCVVSEAGKALDMSYDHKPEDEVELARIKNAGGKVTMDGRVNGGLNLSRAIGDHFYKRNKNLPPEEQMISALPDIKVLTLTDDHEFMVIACDGIWNVMSSQEVVDFIQSKISQRDENGELRLLSSIVEELLDQCLAPDTSGDGTGCDNMTCIIICFKPRNTAELQPESGKRKLEEVLSTEGAEENGNSDKKKKAKRD
notes: PPM1G (PP2Cγ); The cloning into a His-tag vector is not described in the methods; also called His-PPM1G; recombinant PPM1G; source: recombinant
